Results on 1 substance are retold here after publication PMC8771494.

The target of this test is APC15R (the 15-aa repeat region of Adenomatous polyposis coli, repeats A-D with the linker region) (human). The test can be described thus: cross-linking.
Chain of APC15R (the 15-aa repeat region of Adenomatous polyposis coli, repeats A-D with the linker region) (human) (P25054 2-2843): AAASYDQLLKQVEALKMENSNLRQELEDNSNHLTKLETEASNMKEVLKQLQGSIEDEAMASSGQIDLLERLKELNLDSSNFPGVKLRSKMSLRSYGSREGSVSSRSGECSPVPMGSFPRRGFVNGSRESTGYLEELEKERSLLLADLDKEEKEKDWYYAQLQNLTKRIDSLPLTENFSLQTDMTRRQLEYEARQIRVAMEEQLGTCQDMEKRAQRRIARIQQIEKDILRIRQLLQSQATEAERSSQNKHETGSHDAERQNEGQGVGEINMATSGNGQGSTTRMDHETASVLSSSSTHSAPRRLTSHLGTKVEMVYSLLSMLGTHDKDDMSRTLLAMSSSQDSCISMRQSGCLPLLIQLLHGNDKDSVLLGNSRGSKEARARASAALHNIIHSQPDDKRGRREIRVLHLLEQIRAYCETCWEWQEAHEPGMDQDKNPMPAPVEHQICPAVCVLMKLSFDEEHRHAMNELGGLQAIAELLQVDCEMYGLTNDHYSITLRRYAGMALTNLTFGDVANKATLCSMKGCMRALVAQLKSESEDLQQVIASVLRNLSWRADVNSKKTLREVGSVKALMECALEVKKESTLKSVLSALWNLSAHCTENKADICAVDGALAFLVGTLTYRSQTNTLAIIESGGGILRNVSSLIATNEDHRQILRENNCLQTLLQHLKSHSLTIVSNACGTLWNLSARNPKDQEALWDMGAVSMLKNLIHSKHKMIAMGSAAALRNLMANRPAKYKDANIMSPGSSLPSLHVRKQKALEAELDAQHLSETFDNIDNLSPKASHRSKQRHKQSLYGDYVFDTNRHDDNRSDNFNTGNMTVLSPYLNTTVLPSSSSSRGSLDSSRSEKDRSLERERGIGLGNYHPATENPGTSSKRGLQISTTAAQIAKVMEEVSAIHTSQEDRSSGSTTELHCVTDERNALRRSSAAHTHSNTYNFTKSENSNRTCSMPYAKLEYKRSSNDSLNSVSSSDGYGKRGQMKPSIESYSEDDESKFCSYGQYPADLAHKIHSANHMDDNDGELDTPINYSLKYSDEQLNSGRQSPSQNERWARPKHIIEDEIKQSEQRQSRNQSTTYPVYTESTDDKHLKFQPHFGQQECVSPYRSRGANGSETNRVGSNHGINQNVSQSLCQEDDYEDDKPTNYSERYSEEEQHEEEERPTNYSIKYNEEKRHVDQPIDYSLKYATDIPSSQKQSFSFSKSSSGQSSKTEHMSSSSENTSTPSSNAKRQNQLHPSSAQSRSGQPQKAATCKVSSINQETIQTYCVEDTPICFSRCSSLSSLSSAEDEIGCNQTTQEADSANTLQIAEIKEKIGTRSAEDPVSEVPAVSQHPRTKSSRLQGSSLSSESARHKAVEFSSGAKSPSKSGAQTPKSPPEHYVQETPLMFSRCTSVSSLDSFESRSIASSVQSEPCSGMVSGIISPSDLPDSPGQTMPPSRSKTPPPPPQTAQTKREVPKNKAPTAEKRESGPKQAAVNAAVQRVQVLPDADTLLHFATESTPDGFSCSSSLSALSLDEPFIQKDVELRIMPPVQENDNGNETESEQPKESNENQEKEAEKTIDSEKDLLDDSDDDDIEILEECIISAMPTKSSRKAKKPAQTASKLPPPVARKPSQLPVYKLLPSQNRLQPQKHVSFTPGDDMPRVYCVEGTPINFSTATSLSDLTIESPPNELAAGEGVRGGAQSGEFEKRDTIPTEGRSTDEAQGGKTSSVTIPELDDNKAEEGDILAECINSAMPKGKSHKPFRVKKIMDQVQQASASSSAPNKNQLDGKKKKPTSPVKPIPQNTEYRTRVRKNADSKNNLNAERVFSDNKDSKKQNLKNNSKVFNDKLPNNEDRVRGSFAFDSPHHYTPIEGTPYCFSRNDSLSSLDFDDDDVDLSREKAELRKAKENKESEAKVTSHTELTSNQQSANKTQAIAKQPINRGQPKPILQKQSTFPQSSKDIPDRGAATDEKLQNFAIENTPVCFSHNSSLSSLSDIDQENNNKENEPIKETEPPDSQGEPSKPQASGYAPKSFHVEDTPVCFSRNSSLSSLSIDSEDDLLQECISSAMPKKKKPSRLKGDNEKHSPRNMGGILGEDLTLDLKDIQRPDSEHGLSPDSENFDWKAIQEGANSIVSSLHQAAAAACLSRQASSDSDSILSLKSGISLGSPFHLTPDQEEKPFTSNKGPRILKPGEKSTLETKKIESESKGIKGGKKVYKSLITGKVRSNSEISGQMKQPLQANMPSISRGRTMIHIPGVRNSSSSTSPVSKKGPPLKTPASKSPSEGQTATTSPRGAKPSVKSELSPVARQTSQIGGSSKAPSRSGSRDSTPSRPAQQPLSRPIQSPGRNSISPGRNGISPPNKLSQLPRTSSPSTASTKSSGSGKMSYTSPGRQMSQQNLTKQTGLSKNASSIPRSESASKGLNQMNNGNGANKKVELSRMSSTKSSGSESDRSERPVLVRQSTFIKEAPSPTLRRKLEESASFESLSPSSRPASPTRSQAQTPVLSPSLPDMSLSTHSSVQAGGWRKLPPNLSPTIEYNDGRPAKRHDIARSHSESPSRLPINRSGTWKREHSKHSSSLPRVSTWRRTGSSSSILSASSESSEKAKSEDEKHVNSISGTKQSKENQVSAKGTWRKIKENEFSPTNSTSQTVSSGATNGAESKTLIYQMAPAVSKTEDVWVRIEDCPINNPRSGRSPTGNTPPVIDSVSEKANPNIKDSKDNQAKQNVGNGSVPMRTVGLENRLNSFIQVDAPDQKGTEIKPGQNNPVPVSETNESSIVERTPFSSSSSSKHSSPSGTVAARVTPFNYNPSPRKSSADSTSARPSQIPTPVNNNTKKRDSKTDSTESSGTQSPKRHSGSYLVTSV

In turn, “β-catenin (aa. 150–665), the central region of β-catenin (from UniProt P35222 150-665) (domain or fragment)” displayed a stoichiometry N (β-catenin per APC15R) of 1.
